# B1: Fas-associated death domain (FADD) protein, full length (natural protein, UniProt Q13158 1-208, looked up)
# chain: MDPFLVLLHSVSSSLSSSELTELKFLCLGRVGKRKLERVQSGLDLFSMLLEQNDLEPGHTELLRELLASLRRHDLLRRVDDFEAGAAAGAAPGEEDLCAAFNVICDNVGKDWRRLARQLKVSDTKIDSIEDRYPRNLTERVRESLRIWKNTEKENATVAHLVGALRSCQMNLVADLVQEVQQARDLQNRSGAMSPMSWNSDASTSEAS
# notes: FADD (Fas-associated death domain protein), full length; Cloned into pET-28b between NdeI and BamHI
# Biological target: T1, PEA-15 S104D/S116D double mutant (PEA-15DD) (UniProt Q15121 1-130, S104D | S116D)
# T1 construct: PEA-15 (phosphoprotein enriched in astrocytes, 15 kDa), full length, with the phosphomimetic mutations S104D and S116D; Made by site-directed mutagenesis of the PEA-15 plasmid (pET-28b); expressed and purified as the wild type
# Experiment: NMR titration; data not shown: spectra of uniformly labeled PEA-15DD with unlabeled FADD at molar ratios 1:0.5, 1:1 and 1:2; 20 mM sodium phosphate pH 7.0, 150 mM NaCl, 1 mM DTT
# Settings: both partners purified
# T1 sequence (Q15121 whole entry S104D/S116D): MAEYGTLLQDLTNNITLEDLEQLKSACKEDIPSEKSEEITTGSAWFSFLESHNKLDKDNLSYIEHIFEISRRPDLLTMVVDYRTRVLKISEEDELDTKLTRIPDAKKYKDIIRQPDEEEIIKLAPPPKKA
binder,measurement,value
B1,stoichiometry N,1

# Reference: publication PMC6651876, “PEA-15 C-Terminal Tail Allosterically Modulates Death-Effector Domain Conformation and Facilitates Protein–Protein Interactions” (International Journal of Molecular Sciences, 2019)
